Assay results as given in publication PMC6063399, “Thiol-maleimide poly(ethylene glycol) crosslinking of L-asparaginase subunits at recombinant cysteine residues introduced by mutagenesis” (PLoS ONE, 2018).

Biological target: the molecule itself
Test: SEC; Superdex 200 10/300 GL in crosslinking buffer (0.1 M potassium phosphate, 5 mM EDTA, 0.150 M NaCl, pH 6.5-7.0), 0.75 ml/min; mutant reduced with TCEP before loading; fractions followed by A280 and catalytic activity; starting solution of low purity

B1: L-asparaginase mutant A38C-T263C (enzyme, E. coli, UniProt P00805 23-348, looked up)
chain: LPNITILATGGTIAGGGDSATKSNYTVGKVGVENLVNCVPQLKDIANVKGEQVVNIGSQDMNDNVWLTLAKKINTDCDKTDGFVITHGTDTMEETAYFLDLTVKCDKPVVMVGAMRPSTSMSADGPFNLYNAVVTAADKASANRGVLVVMNDTVLDGRDVTKTNTTDVATFKSVNYGPLGYIHNGKIDYQRTPARKHTSDTPFDVSKLNELPKVGIVYNYANASDLPAKALVDAGYDGIVSAGVGNGNLYKSVFDTLATAAKCGTAVVRSSRVPTGATTQDAEVDDAKYGFVASGTLNPQKARVLLQLALTQTKDPQQIQQIFNQY
notes: L-asparaginase II of E. coli (ansB), expressed with its natural signal peptide, which was excised; In the cross-linking experiments the two introduced cysteines were reacted with Bi-MAL-PEG (2000 or 5000 g/mol) after reduction with TCEP; also called mutant L-asparaginase; precursor mutant
  binding result: binds
